# Measurements as given in patent US11441147B2 (priority 2013, dated 2022).
# Read-outs that look alike come from different tables or passages of the source.
# B1: CYP3RNA: 791 bp dsRNA complementary to all three Fg CYP51 genes, from stacked clone CYP51B-CYP51A-CYP51C; SEQ ID NO:7 (nucleic acid)
# DNA: CAGCAAGTTTGACGAGTCCCTGGCCGCTCTCTACCACGACCTCGATATGGGCTTCACCCCCATCAACTTCATGCTTCACTGGGCCCCTCTCCCCTGGAACCGTAAGCGCGACCACGCCCAGCGCACTGTTGCCAAGATCTACATGGACACTATCAAGGAGCGCCGCGCCAAGGGCAACAACGAATCCGAGCATGACATGATGAAGCACCTTATGAACTCTCCATGGCGGCCGCGGGAATTCGATATCGGTCCATTGACAATCCCCGTCTTTGGTAGCGATGTCGTATACGATTGTCCCAACTCGAAGCTCATGGAACAAAAGAAGTTTGTCAAGTTTGGCCTTACGCAAAAAGCACTCGAGTCACACGTCCAGTTAATCGAGCGAGAGGTTCTTGACTACGTCGAAACTGATCCATCCTTTTCTGGCAGAACTAGCACCATCGATGTCCCCAAGGCAATGGCTGAGATAACAATCTTTACTGCCTCACGTTCTTTGCAGGGTGAGGAAGTTCGGAGAAAACTCACTGCCGAGTTTGCTGCCACTAGTATTGGAAGCACCGTACAATATGGCATCGACCCGTACGCTTTTTTCTTCGACTGCAGAGATAAATACGGCGACTGCTTTACCTTTATTCTCCTTGGCAAATCAACGACTGTCTTTCTTGGTCCCAAGGGCAATGACTTTATCCTCAACGGCAAACACGCCGATCTCAACGCCGAGGACGTTTATGGGAAACTTACCACGCCCGTGTTTGGTGAGGAGGTTGTTTATGACTGCTCCAATG
# modifications: combines partial sequences of Fusarium graminearum CYP51B-CYP51A-CYP51C
# How the values were obtained:
# [1] = test system: Fusarium graminearum (Fg) macroconidia; format: cell-based; details: for Morphology of Fg macroconidia (microscopic analysis): 1.5 μg dsRNA per 100 macroconidia in 100 μl SNA medium
# Fg CYP51B = format: in vivo, Fusarium graminearum; details: 3 dpi; average of lines L1, L8, L10, L11 vs ev control line
# [2] = test system: Fusarium graminearum (Fg); details: 3 dpi
# [3] = test system: siRNAs corresponding to the targeted CYP51 sequences; assay: Northern analysis of siRNAs in Arabidopsis leaves with CYP3RNA as probe; parameters: species or system Arabidopsis thaliana; details: Fg-infested and uninfested leaves from CYP3RNA-expressing plants
# Description: For detecting siRNA, total RNA was extracted from the Arabidopsis lines using TRIzol reagent (Invitrogen) following the manufacturer's protocol. A total of 15 μg total RNA was separated in a 16% polyacrylamide-7 M urea gel, and transferred onto Hybond Nylon membrane (Amersham, UK) using a semidry blotter (BioRad) at constant current (250 mA) for 3 h. The RNA was UV-cross-linked to the membrane at 1200×100 μjoules (UV Stratalinker) energy. The membrane was pre-hybridized for 45 min at 42° C. in 20 ml PerfectHyb-Puffer (Sigma). The complete 791 bp CYP3RNA PCR amplicon was used as a template for random labeling (Random Primer DNA Labeling with Kit, NEB), added to the hybridization buffer, and hybridized overnight at 42° C. The membrane was washed twice at room temperature with 5×SSC+0.01% SDS. The membrane was exposed on phosphorimaging screens (Bio-Rad) and signals were detected using a molecular imager and the Quantity One software (BioRad). A parallel loading of low range RNA marker (Fermentas) was used as size marker.
# It was further assessed whether this reduction in Fg CYP51 transcripts was associated with the production of corresponding siRNAs. In Northern analyses using CYP3RNA as the probe, siRNAs corresponding to the targeted CYP51 sequences in both Fg-infested and uninfested leaves from CYP3RNA-expressing plants were detected (FIG. 8). […]
# [4] = test system: Fusarium graminearum (Fg) macroconidia; format: cell-based; details: 0 hpt and 72 hpt; dose dependent, 75 μg to 1 μg dsRNA
# CYP51A = format: cell-based, Fusarium graminearum; details: 72 hpt; normalized to beta-tubulin
# Fg CYP51A = format: in vivo, Fusarium graminearum; details: 3 dpi; average of lines L1, L8, L10, L11 vs ev control line
# [5] = test system: Fusarium graminearum (Fg); format: in vivo, Fusarium graminearum on barley; details: upper part sprayed, lower part inoculated after 2 days; 6 days after inoculation
# [6] = test system: Fusarium graminearum (Fg); format: in vivo, Fusarium graminearum on barley cultivar Golden Promise; details: 6 days after inoculation
# CYP51C = format: cell-based, Fusarium graminearum; details: 72 hpt; normalized to beta-tubulin
# GFP-expressing Fg strain = format: in vivo, Fusarium graminearum on Arabidopsis thaliana Col-0; details: 3 dpi; CYP3RNA-expressing leaves
# Fg CYP51C = format: in vivo, Fusarium graminearum; details: 3 dpi; average of lines L1, L8, L10, L11 vs ev control line
# CYP51B = format: cell-based, Fusarium graminearum; details: 72 hpt; normalized to beta-tubulin
Molecule,"Phenotype of Fg macroconidia ([1]; tebuconazole 5 mg/l, 72 h post treatment)",Reduction of relative transcript level of Fg CYP51B (Fg CYP51B) [%],Reduction of fungal mycelium formation on leaves (trypan blue microscopy) ([2]; CYP3RNA-expressing leaves vs Col-0 ev control) [%],"Disease symptoms on detached leaves ([2]; T2 lines L1, L8, L10, L11, 5×10^4 Fg macroconidia per ml)","Percentage of infested leaf area ([2]; four transgenic lines, ev controls 77%) [%]",siRNAs corresponding to the targeted CYP51 sequences [3],Fungal growth (optical densities of Fg cultures at 600 nm) [4],Morphology of Fg macroconidia (microscopic analysis) ([1]; 48 h post treatment),Morphology of Fg macroconidia (microscopic analysis) ([1]; 72 h post treatment),CYP51A transcript level vs mock control (CYP51A),Reduction of relative transcript level of Fg CYP51A (Fg CYP51A) [%],Fungal growth at sprayed upper and unsprayed lower leaf area (relative amount of fungal DNA) [5],"Relative amount of fungal DNA (qPCR, normalized to plant ubiquitin DNA) ([6]; vs infected control leaves)","Fungal growth on sprayed leaves (infection symptoms) ([6]; dsRNA 20 ng/μl sprayed 48 h before inoculation, vs buffer or GFP-dsRNA)",CYP51C transcript level vs mock control (CYP51C),Fungal growth on intact leaves (GFP fluorescence) (GFP-expressing Fg strain),Reduction of relative transcript level of Fg CYP51C (Fg CYP51C) [%],CYP51B transcript level vs mock control (CYP51B)
"CC(C)(C)C(O)(CCc1ccc(Cl)cc1)Cn1cncn1 (stereo not drawn) [tebuconazole, reference compound]",phenotype comparable to that elicited by CYP3RNA treatment,,,,,,,,,,,,,,,,,
B1,,89,~100,no disease symptoms,0.9,detected,strongly inhibited,swelling of hyphal tips,morphological changes had become more pronounced,significantly reduced,92,observed not only at the CYP3RNA-treated upper leaf area but also at the lower leaf area,significantly lower,significant inhibition of fungal growth,significantly reduced,restricted to the inoculation site,77,significantly reduced
